# Positions count from the first letter of the chain named.
# B1: LM609 grafted antibody combinatorial clone 2G4 (Fab, V domains shown)
# VH: QVQLVESGGGVVQPGRSLRLSCAASGFTFSSYDMSWVRQAPGKGLEWVAKVSSGGGSTYYLDTVQGRFTISRDNSKNTLYLQMNSLRAEDTAVYYCARHNYGSFASWGQGTTVTVSS
# VL: EIVLTQSPATLSLSPGERATLSCQASQSISNHLHWYQQRPGQAPRLLIRYRSQSISGIPARFSGSGSGTDFTLTISSLEPEDFAVYYCQQSGSWPLTFGGGTKVEIK
# notes: Fab
# B2: LM609 grafted antibody combinatorial clone 6D1 (Fab, V domains shown)
# VH: B1 VH with L61P, A105Y
# VL: B1 VL
# notes: Fab
# B3: LM609 grafted antibody combinatorial clone 6G1 (Fab, V domains shown)
# VH: B1 VH with L61P
# VL: B1 VL
# notes: Fab
# B4: LM609 grafted antibody combinatorial clone 6H6 (Fab, V domains shown)
# VH: B1 VH with Y101H
# VL: B1 VL
# notes: Fab
# B5: LM609 grafted antibody combinatorial clone 7 (Fab, V domains shown)
# VH: B1 VH with L61P, Y101H
# VL: B1 VL with H32F, L96H
# notes: Fab
# B6: LM609 grafted antibody combinatorial clone 8F9 (Fab, V domains shown)
# VH: B1 VH with L61P, Y101H
# VL: B1 VL
# notes: Fab
# B7: LM609 grafted antibody combinatorial clone 17 (Fab, V domains shown)
# VH: B1 VH
# VL: B1 VL with H32F, L96H
# notes: Fab
# B8: LM609 grafted antibody combinatorial clone 56 (Fab, V domains shown)
# VH: B1 VH with L61P
# VL: B1 VL with H32F, L96H
# notes: Fab
# B9: LM609 grafted antibody combinatorial clone C29 (Fab, V domains shown)
# VH: B1 VH with L61P, Y101H, A105Y
# VL: B1 VL
# notes: Fab
# B10: LM609 grafted antibody combinatorial clone C37 (Fab, V domains shown)
# VH: B1 VH with A105Y, S106E
# VL: B1 VL
# notes: Fab
# B11: LM609 grafted antibody combinatorial clone C119 (Fab, V domains shown)
# VH: B1 VH with L61P
# VL: B1 VL with G92N, L96H
# notes: Fab
# B12: LM609 grafted antibody combinatorial clone C176 (Fab, V domains shown)
# VH: B1 VH with L61P, S106T
# VL: B1 VL with H32F, L96H
# notes: Fab
# B13: LM609 grafted antibody combinatorial clone V357D (Fab)
# chain 1: B1 VH with S106D
# chain 2: B1 VL with H32F, L96H
# modifications: not checked
# B14: enhanced LM609 grafted antibody clone 2236-38/6H6LH (Fab, V domains shown)
# VH: B1 VH with L61P, N100L, Y101H
# VL: B1 VL with H32F
# B15: LM609 grafted antibody variant A102 (Fab, V domains shown)
# VH: B1 VH with S106A
# VL: B1 VL with L96H
# notes: Fab
# B16: LM609 grafted antibody variant E102 (Fab, V domains shown)
# VH: B1 VH with S106E
# VL: B1 VL with L96H
# notes: Fab
# B17: LM609 grafted antibody variant F32 (Fab, V domains shown)
# VH: B1 VH with S106Y
# VL: B1 VL with H32F, L96H
# notes: Fab
# B18: LM609 grafted antibody variant G102 (Fab, V domains shown)
# VH: B1 VH with S106G
# VL: B1 VL with L96H
# notes: Fab
# B19: LM609 grafted antibody variant K52 (Fab, V domains shown)
# VH: B1 VH with S52K, S106Y
# VL: B1 VL with L96H
# notes: Fab
# B20: LM609 grafted antibody variant L30 (Fab, V domains shown)
# VH: B1 VH with S30L, S106Y
# VL: B1 VL with L96H
# notes: Fab
# B21: LM609 grafted antibody variant L96 (Fab, V domains shown)
# VH: B1 VH with S106Y
# VL: B1 VL
# notes: Fab
# B22: LM609 grafted antibody variant M102 (Fab, V domains shown)
# VH: B1 VH with S106M
# VL: B1 VL with L96H
# notes: Fab
# B23: LM609 grafted antibody variant N92 (Fab, V domains shown)
# VH: B1 VH with S106Y
# VL: B1 VL with G92N, L96H
# notes: Fab
# B24: LM609 grafted antibody variant P60 (Fab, V domains shown)
# VH: B1 VH with L61P, S106Y
# VL: B1 VL with L96H
# notes: Fab
# B25: LM609 grafted antibody variant Q96 (Fab, V domains shown)
# VH: B1 VH with S106Y
# VL: B1 VL with L96Q
# notes: Fab
# B26: LM609 grafted antibody variant S51 (Fab, V domains shown)
# VH: B1 VH with S106Y
# VL: B1 VL with R51S, L96H
# notes: Fab
# B27: LM609 grafted antibody variant T27 (Fab, V domains shown)
# VH: B1 VH with F27T, S106Y
# VL: B1 VL with L96H
# notes: Fab
# B28: LM609 grafted antibody variant T92 (Fab, V domains shown)
# VH: B1 VH with S106Y
# VL: B1 VL with G92T, L96H
# notes: Fab
# B29: LM609 grafted antibody variant W29 (Fab, V domains shown)
# VH: B1 VH with F29W, S106Y
# VL: B1 VL with L96H
# notes: Fab
# Biological target: T1, integrin αVβ3 (human, UniProt P06756 31-1048; P05106 27-788)
# T1 construct: mature; biotinylated in capture lift and capture ELISA; also on M21 melanoma cells in some assays; also called vitronectin receptor; αVβ3 receptor
# Assay: SPR (BIAcore)
Binder,fold slower dissociation rate [fold],fold greater association rate [fold]
B1,> 10,–
B2,> 10,–
B3,> 10,2 to 4
B4,> 10,–
B5,> 10,–
B6,> 10,–
B7,> 10,–
B8,> 10,–
B9,> 10,2 to 4
B10,> 10,–
B11,> 10,–
B12,> 10,–

# Biological target: T2, integrin αVβ3 (human), P06756
# T2 chain 1: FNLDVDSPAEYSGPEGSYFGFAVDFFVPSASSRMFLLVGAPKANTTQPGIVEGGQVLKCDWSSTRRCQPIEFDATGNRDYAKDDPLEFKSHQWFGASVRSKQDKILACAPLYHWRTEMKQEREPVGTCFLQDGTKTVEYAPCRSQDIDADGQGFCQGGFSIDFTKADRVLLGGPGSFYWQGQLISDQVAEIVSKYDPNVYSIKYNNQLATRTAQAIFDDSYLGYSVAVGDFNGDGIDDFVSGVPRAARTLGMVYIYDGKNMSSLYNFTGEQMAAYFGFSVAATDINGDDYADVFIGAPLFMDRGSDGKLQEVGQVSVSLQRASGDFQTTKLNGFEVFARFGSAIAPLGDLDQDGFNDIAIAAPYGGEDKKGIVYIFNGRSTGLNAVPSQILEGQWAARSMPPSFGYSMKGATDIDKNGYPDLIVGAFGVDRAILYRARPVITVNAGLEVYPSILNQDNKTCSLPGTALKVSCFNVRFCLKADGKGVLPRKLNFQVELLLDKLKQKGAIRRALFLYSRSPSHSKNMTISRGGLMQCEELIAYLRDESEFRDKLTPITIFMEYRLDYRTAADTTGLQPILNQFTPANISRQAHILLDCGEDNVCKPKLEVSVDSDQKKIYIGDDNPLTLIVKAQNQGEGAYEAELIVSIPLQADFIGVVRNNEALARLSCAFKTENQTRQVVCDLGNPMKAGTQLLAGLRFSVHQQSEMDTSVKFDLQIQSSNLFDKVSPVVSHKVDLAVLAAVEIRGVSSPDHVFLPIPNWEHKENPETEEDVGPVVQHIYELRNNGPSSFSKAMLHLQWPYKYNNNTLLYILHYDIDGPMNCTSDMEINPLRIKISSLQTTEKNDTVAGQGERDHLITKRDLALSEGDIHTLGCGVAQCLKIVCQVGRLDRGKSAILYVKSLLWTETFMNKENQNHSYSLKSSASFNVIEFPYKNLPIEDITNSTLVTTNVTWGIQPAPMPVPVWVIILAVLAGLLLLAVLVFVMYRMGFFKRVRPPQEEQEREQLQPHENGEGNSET
# T2 chain 2: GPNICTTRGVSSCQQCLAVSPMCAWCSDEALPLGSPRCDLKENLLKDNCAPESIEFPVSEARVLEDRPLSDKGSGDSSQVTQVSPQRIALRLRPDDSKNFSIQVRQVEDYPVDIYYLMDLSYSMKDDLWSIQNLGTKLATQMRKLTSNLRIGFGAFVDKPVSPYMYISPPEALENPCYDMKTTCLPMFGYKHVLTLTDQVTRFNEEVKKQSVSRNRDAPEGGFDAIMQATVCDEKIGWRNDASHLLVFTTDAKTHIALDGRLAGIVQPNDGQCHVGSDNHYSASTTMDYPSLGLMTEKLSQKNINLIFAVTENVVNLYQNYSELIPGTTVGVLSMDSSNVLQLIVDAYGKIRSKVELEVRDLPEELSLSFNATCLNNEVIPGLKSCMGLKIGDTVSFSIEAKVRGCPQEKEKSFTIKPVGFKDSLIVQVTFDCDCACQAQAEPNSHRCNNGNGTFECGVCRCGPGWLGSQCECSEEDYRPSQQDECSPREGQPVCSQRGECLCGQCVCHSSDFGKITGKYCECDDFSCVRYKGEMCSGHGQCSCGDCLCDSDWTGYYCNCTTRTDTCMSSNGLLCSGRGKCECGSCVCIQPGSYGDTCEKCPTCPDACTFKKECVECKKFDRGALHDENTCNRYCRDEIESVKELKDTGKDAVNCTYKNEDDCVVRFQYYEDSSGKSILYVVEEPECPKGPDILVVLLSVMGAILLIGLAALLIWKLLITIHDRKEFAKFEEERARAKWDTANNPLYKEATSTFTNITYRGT
# Assay: SPR (BIAcore)
row,Binder,fold slower dissociation rate [fold]
1,B13,> 10

# Biological target: T1, integrin αVβ3
# Assay: SPR (BIACORE), as in Example VI
# Procedure: The affinities of select variants were further characterized by utilizing surface plasmon resonance (BIAcore) to measure the association and dissociation rates of purified Fab with immobilized αVβ₃. […] To obtain association rate constants (kₒₙ), the binding rate at five different Fab concentrations, ranging from 5-40 μg/ml in 50 mM Tris-HCl, pH 7.4, 100 mM NaCl, 2 mM CaCl₂, and 1 mM MgCl₂, was determined at a flow rate of 10 μl/min. Dissociation rate constants (koff) were the average of five measurements obtained by analyzing the dissociation phase at an increased flow rate (40 μl/min). Sensorgrams were analyzed with the BIAevaluation 2.1 program (Pharmacia). Residual Fab was removed after each measurement with 10 mM HCl, 2 mM CaCl₂ and 1 mM MgCl₂.
row,Binder,Kd [nM]
1,B4,0.62
2,B14,0.9

# Biological target: T2, integrin αVβ3 (human), P06756
# Assay: SPR (BIAcore), ratio of Kd
row,Binder,fold enhanced affinity over parent LM609 grafted antibody [fold]
1,B13,> 50

# Biological target: T1, integrin αVβ3
# Assay: ELISA titration of Fab on immobilized αVβ3
# Procedure: For ELISA titration of Fab on immobilized αVβ₃ and the related integrins αVβ₅ and αIIbβ₃, Immulon II microtiter plates were coated with 1 μg/ml purified receptor in 20 mM Tris, pH 7.4, 150 mM NaCl, 2 mM CaCl, 1 mM MgCl₂, 1 mM MnCl₂, washed once, and blocked in 3% BSA in 50 mM Tris, pH 7.4, 100 mM NaCl, 2 mM CaCl₂, 1 mM MgCl₂ for 1 h at 25° C. […] Just prior to use, the plates were washed two times and were then incubated 1 h at 25° C. with various dilutions of Fab. […] All dilutions and washes were in 50 mM Tris-HCl, pH 7.4, 100 mM NaCl, 2 mM CaCl₂, and 1 mM MgCl₂.
row,Binder,fold enhanced binding over LM609 grafted antibody [fold]
1,B15,> 3
2,B16,> 3
3,B17,> 3
4,B18,> 3
5,B19,> 3
6,B20,> 3
7,B21,> 3
8,B22,> 3
9,B23,> 3
10,B24,> 3
11,B25,> 3
12,B26,> 3
13,B27,> 3
14,B28,> 3
15,B29,> 3

# Biological target: T2, integrin αVβ3 (human), P06756
# Assay: SPR (BIAcore), Fab over immobilized αVβ3
Binder,Kd [nM],koff [s⁻¹],kon [M⁻¹ s⁻¹]
B13,0.5,0.00014,279000

# Reference: patent publication US20030166872A1 (APPLIED MOLECULAR EVOLUTION, published 2003)
